The results in this text go back to article doi:10.1101/2025.06.16.659917, “MTBP allosterically activates Cdk8-CycC kinase activity” (bioRxiv, 2025).

This assay has as its target T1, 6xHis-3xFLAG-Cdk8 wt (recombinant, full-length) (human, UniProt P49336 1-464).
T1 construct: Cdk8, human, full-length; Co-expressed with CycC, alone or together with MTBP(C) or Med12(N100); source: Sf9/Hi5 insect cells (baculovirus), purified (Ni-NTA, dialysis); not shown: 6xHis, N-terminal, kept
In words: pull-down; co-expression in Sf9/Hi5 insect cells and co-purification on Ni-NTA agarose via the N-terminal 6His-tag on Cdk8; 20 mM HEPES pH 8.0, 150 mM NaCl, 2% glycerol, 0.1% Triton X-100, 0.5 mM TCEP, 20 mM imidazole; 4°C. The note with it: partners not purified.

T1 sequence (P49336 whole entry): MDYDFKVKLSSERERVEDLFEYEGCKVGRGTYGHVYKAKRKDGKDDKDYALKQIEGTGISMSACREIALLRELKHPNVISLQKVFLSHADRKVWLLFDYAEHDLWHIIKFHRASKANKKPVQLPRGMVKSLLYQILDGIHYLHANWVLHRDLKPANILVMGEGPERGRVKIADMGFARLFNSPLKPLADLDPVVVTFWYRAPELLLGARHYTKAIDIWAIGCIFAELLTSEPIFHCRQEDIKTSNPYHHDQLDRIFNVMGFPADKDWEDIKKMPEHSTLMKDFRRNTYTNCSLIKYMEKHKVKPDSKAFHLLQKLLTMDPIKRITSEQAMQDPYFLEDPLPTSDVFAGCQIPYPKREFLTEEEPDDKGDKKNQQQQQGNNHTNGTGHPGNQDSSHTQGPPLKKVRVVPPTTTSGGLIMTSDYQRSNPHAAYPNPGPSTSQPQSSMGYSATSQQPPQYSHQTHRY

B1: Med12(N100) (recombinant Med12 residues 1-100) (domain or fragment, human, UniProt Q93074 1-100, looked up)
chain: MAAFGILSYEHRPLKRPRLGPPDVYPQDPKQKEDELTALNVKQGFNNQPAVSGDEHGSAKNVSFNPAKISSNFSSIIAEKLRCNTLPDTGRRKPQVNQKD
notes: Med12, human, residues 1-100; also called Med12-1-100; Med12(1-100); source: Sf9/Hi5 insect cells (baculovirus), co-expressed with Cdk8 and CycC, purified (Ni-NTA via Cdk8); also purified alone
For B1, the binding result is recorded as “binds”.
